According to patent publication US7589065:

T1: Ala-Ala-Tyr-Ala-Ala
T1 chain: AAYAA

B1: Parvulin (protein)
chain: AKTAAALHILVKEEKLALDLLEQIKNGADFGKLAKKHSICPSGKRGGDLGEFRQGQMVPAFDKVVFSCPVLEPTGPLHTQFGYHIIKVLYRN
B2: trigger factor (TF) (protein)
chain: MQVSVETTQGLGRRVTITIAADSIETAVKSELVNVAKKVRIDGFRKGKVPMNIVAQRYGASVRQDVLGDLMSRNFIDAIIKEKINPAGAPTYVPGEYKLGEDFTYSVEFEVYPEVELQGLEAIEVEKPIVEVTDADVDGMLDTLRKQQATWKEKDGAVEAEDRVTIDFTGSVDGEEFEGGKASDFVLAMGQGRMIPGFEDGIKGHKAGEEFTIDVTFPEEYHAENLKGKAAKFAINLKKVEERELPELTAEFIKRFGVEDGSVEGLRAEVRKNMERELKSAIRNRVKSQAIEGLVKANDIDVPAALIDSEIDVLRRQAAQRFGGNEKQALELPRELFEEQAKRRVVVGLLLGEVIRTNELKADEERVKGLIEEMASAYEDPKEVIEFYSKNKELMDNMRNVALEEQAVEAVLAKAKVTEKETTFNELMNQQA
B3: fragment of the trigger factor (protein)
chain: RKQQATWKEKDGAVEAEDRVTIDFTGSVDGEEFEGGKASDFVLAMGQGRMIPGFEDGIKGHKAGEEFTIDVTFPEEYHAENLKGKAAKFAINLKKVEERELPELTAE

Target: T1, Ala-Ala-Tyr-Ala-Ala
Work on B1 yielded a relative intensity of the cross signal of the Ala-Tyr peptide bond (no addition: 3.50 ± 0.51) (relative intensity) of 2.9 and a relative intensity of the cross signal of the Tyr-Ala peptide bond (no addition: 3.89 ± 0.32) (relative intensity) of 3.11. B2 gave a relative intensity of the cross signal of the Ala-Tyr peptide bond (no addition: 3.50 ± 0.51) (relative intensity) of 3.83 and a relative intensity of the cross signal of the Tyr-Ala peptide bond (no addition: 3.89 ± 0.32) (relative intensity) of 4.42. B3 was tested, and the relative intensity of the cross signal of the Ala-Tyr peptide bond (no addition: 3.50 ± 0.51) (relative intensity) was 3.96 and the relative intensity of the cross signal of the Tyr-Ala peptide bond (no addition: 3.89 ± 0.32) (relative intensity) was 3.22.
